This note sets out measurements from patent US7211422B2, “Polypeptide having α-isomaltosylglucosaccharide synthase activity” (Kabushiki Kaisha Hayashibara Seibutsu Kagaku Kenkyujo, priority 2001, dated 2007).

Data set [1] can be described thus: Isoelectric point by isoelectrophoresis (2% ampholine gel). The format is physicochemical. The conditions noted are these: gel containing 2% (w/v) ampholine. The source says: Purified specimens of the polypeptide having α-isomaltosylglucosaccharide-forming enzyme activity from Bacillus globisporus C11 obtained by the method in Experiment 1-3, Bacillus globisporus N75 obtained by the method in Experiment 2–3, and Arthrobacter globiformis A19 obtained by the method in Experiment 3-3 were subjected to isoelectrophoresis using a gel containing 2% (w/v) ampholine commercialized by Amersham Biosciences K. K., Tokyo, Japan (old name, Amersham Pharmacia Biotech), and then measured pHs of protein bands and gel to determine their isoelectric points.

Data set [2] in a line: Test on reducing-power formation. The conditions noted are these: 1% (w/v) maltotetraose, 0.25 unit/g substrate, 35° C., pH 6.0 (pH 8.4 for A19). The format is biochemical. On the procedure:
The following test was carried out to study whether the polypeptide having α-isomaltosylglucosaccharide-forming enzyme activity had the ability of forming reducing-power or not. To a 1% (w/v) aqueous solution of maltotetraose as a substrate was added 0.25 unit/g substrate, d.s.b., of either of purified polypeptide specimen of α-isomaltosylglucosaccharide-forming enzyme from Bacillus globisporus C11 obtained by the method in Experiment 1-3, Bacillus globisporus N75 obtained by the method in Experiment2-3, or Arthrobacter globiformis A19 obtained by the method in Experiment 3-3, and incubated at 35° C. and at pH 6.0, except that pH 8.4 was used for the enzyme from Arthrobacter globiformis A19. During the reaction, a portion of each reaction mixture was sampled at prescribed time intervals and measured for reducing power after keeping at 100° C. for 10 minutes to stop the enzymatic reaction. Before and after the enzymatic reaction, the reducing sugar content and total sugar content were respectively quantified by the Somogyi-Nelson method and anthrone-sulfuric acid method. The percentage of forming reducing power was calculated by the following equation: Percentage of forming reducing power (%)=(AR/AT−BR/BT)×100 Equation: • AR: Reducing sugar content after enzymatic reaction. • AT: Total sugar content after enzymatic reaction. • BR: Reducing sugar content before enzymatic reaction. • BT: Total sugar content before enzymatic reaction.

A short description of data set [3]: Thermal stability and pH stability (residual enzyme activity). The conditions noted are these: 20 mM acetate buffer pH 6.0, 60 minutes. Format: physicochemical. How it is done:
The thermal stability of the polypeptide having α-isomaltosylglucosaccharide-forming enzyme activity was determined by incubating the testing polypeptide solution in 20 mM acetate buffer, pH6.0 (in the case of the polypeptide from a strain A19, 20 m M Glycine-NaOH buffer, pH 8.0) at prescribed temperatures for 60 minutes in the presence or absence of 1 mM Ca^2+, cooling with water the resulting polypeptide solutions, and assaying the residual enzyme activity of each solution. The pH stability of the polypeptide having α-isomaltosylglucosaccharide-forming enzyme activity was determined by keeping the testing polypeptide solutions in 50 mM buffer having prescribed pHs at 4° C. for 24 hours, adjusting the pH of each solution to 6.0 (in the case of the polypeptide from a strain A19, pH 8.0), and assaying the residual enzyme activity of each solution. […] The thermal stability of the polypeptide having α-isomaltosylglucosaccharide-forming enzyme activity from a strain C11 was up to about 40° C. (in the absence of Ca^2+) and about 45° C. (in the presence of Ca^2+), and pH stability of about 5.0 to about 10.0. The thermal stability of the polypeptide having α-isomaltosylglucosaccharide-forming enzyme activity from a strain N75 was up to about 45° C. (in the absence of Ca^2+) and about 50° C. (in the presence of Ca^2+), and pH stability of about 5.0 to about 9.0. The thermal stability of the polypeptide having α-isomaltosylglucosaccharide-forming enzyme activity from a strain A19 was up to about 55° C. (in the absence of Ca^2+) and about 60° C. (in the presence of Ca^2+), and pH stability of about 5.0 to about 9.0.

The nature of data set [4]: Effect of temperature and pH on α-isomaltosylglucosaccharide-forming enzyme activity. The format is biochemical. The conditions noted are these: for Optimum temperature: pH 6.0 for 60 minutes; for Optimum pH: incubated at 35° C. for 60 minutes. On the procedure:
The two types of enzymatic activities described above were measured as following. The activity of α-isomaltosylglucosaccharide-forming enzyme was measured by the following assay: A substrate solution was prepared by dissolving maltotriose in 100 mM acetate buffer (pH 6.0) to give a concentration of 2% (w/v). A reaction mixture was prepared by mixing 0.5 ml of the substrate solution and 0.5 ml of an enzyme solution, and incubated at 35° C. for 60 minutes. After stopping the reaction by boiling for 10 minutes, the amount of maltose formed in the reaction mixture was determined by high-performance liquid chromatography (HPLC). One unit of α-isomaltosylglucosaccharide-forming activity was defined as the amount of the enzyme that forms one μmole of maltose per minute under the above conditions. HPLC was carried out using “SHODEX KS-801 column”, Showa Denko K. K., Tokyo, Japan, at a column temperature of 60° C. and a flow rate of 0.5 ml/minutes of water, and using “RI-8012”, a differential refractometer commercialized by Tosoh Corporation, Tokyo, Japan.
The effect of temperature and pH on the α-isomaltosylglucosaccharide-forming enzyme activity was examined in accordance with the assay for the α-isomaltosylglucosaccharide-forming enzyme activity under various temperature and pH conditions. The effect of temperature was conducted in the presence or absence of 1 mM Ca^2+. […] The optimum temperature of the polypeptide having α-isomaltosylglucosaccharide-forming enzyme activity from a strain C11 was about 45° C. (in the absence of Ca^2+) and about 50° C. (in the presence of Ca^2+) when incubated at pH 6.0 for 60 minutes, and the optimum pH was about 6.0 when incubated at 35° C. for 60 minutes. The optimum temperature of the polypeptide having α-isomaltosylglucosaccharide-forming enzyme activity from a strain N75 was about 50° C. (in the absence of Ca^2+) and about 55° C. (in the presence of Ca^2+) when incubated at pH 6.0 for 60 minutes, and the optimum pH was about 6.0 when incubated at 35° C. for 60 minutes. The optimum temperature of the polypeptide having α-isomaltosylglucosaccharide-forming enzyme activity from a strain A19 was about 60° C. (in the absence of Ca^2+) and about 65° C. (in the presence of Ca^2+) when incubated at pH 8.4 for 60 min, and the optimum pH was about 8.4 when incubated at 35° C. for 60 minutes.

B1: Enzyme of Strain N75: purified polypeptide having α-isomaltosylglucosaccharide-forming enzyme activity from Bacillus globisporus N75 (Experiment 2-3); contains SEQ ID NO: 2 (protein)
chain: HVSALGNLLSSAVTGDTLTLTIDNGAEPNDDILVLQAVQNGILKVDYRPNGVAPSADTPMLDPNKTWPSIGAVINTASNPMTITTPAMKIEIAKNPVRLTVKKPDGTALLWEPPTGGVFSDGVRFLHGTGDNMYGIRSFNAFDSGGDLLRNSSTQAARAGDQGNSGGPLIWSTAGYGVLVDSDGGYPFTDEATGKLEFYYGGTPPEGRRYTKQDVEYYIMLGTPKEIMSGVGEITGKPPMLPKWSLGFMNFEWDLNEAELKNHVDTYRAKNIPIDGYAIDFDWKKYGENNYGEFAWNTANFPSAATTALKSQMDAKGIKMIGITKPRIATKDFSNNPTVQGTDAASGGYFYPGHSEYKDYFIPVFVRSIDPYNPAARSWFWNHSKDAFDKGIVGWWNDETDAVSSGGASYWFGNFTTGHMSQALYEGQRAYTSNAQRVWQTARTFYPGAQRYATTLWSGDIGIQYTKGERINWAAGMQEQRAVMLSSINNGQVKWGMDTGGFNQQDGTTNNPNPDLYARWMQFSALTPVFRVHGNNHQQRQPWYYGSTAEEASKEALQLRYSLIPYMYAYERSAYENGNGLVRPLMQEYPADANAKNYLDAWMFGDWLLAAPVVEKQQTSKEIYLPAGTWIDYNRGTVLTGGQKISYAVNPDTLTDIPLFIKKGAIIPSQKVQDYVGQAPVQTVDVDVFPNTAQSSFTYYDDDGSSYNYESGAYFKQLMTAQDNGSGALSFTLGAKTGTYSPALQSYIVKLHGAAGASVTSNGAALASYASLQALKASASEGWAKGKDIYGDVTYVKLSAGAAAAKAIAVTGNSPVSVADVQYEAEEASLSGNTTATKATVNTNHAGYTGSGFVDGLSNPGAAVTFYPKVKTGGDYNVSLRYANSTGAAKSVSIFVNGKRVKSTSLANLPNWDTWGTQAETLPLTAGTNVVTYKFYSDAGDTGSVNLDNITVPFAPAIGKYEAESAELSGGSTVNQNHWFYSGTAFVDGLTAPGAQVKYTVNAPAAGSYQIALRYANGTGAAKTLSTYVNGTKLGQTAFASPGGNWNVWQDSVQTVALAAGTNTIAFKYDAGDSGSGSVNLDRLLLSAAAPGVPVSEQNLLDNGGFERDPSQSSNWTEWHPASQAIAYGIDSGSGMNPPESPWAGDKRAYFYAAGPYQQSIHQTVSVPVNNAKYKFEAWVLLKNTTPTTARVEIQNYGGSPIFTNISKDGVWKYISVSDIQVTNGQIDIGFYVDSPGGTTLHIDDVRVTKQ
modifications: Bacillus globisporus N75
On to B1, for which the Isoelectric point entry in data set [1] is “about 7.3±0.5”. In addition, the “Percentage of forming reducing power” value in data set [2] (reaction time 0 hour) is listed as 0.0%; in data set [2] (reaction time 1 hour), 0.1%; in data set [2] (reaction time 2 hours) it was 0.0%; in data set [2] (reaction time 4 hours), 0.0%; in data set [2] (reaction time 8 hours), 0.1%. In data set [3] (in the presence of 1 mM Ca2+), the Thermal stability was at most 50 °C. The Optimum temperature result was “about 50 °C” in data set [4] (in the absence of Ca2+) and “about 55 °C” in data set [4] (in the presence of 1 mM Ca2+). The “Optimum pH” value in data set [4] is “about 6.0”.

B2: Enzyme of Strain C11: purified polypeptide having α-isomaltosylglucosaccharide-forming enzyme activity from Bacillus globisporus C11 (Experiment 1-3); contains SEQ ID NO: 1 (protein)
chain: YVSSLGNLISSSVTGDTLTLTVDNGAEPSDDLLIVQAVQNGILKVDYRPNSITPSAKTPMLDPNKTWSAVGATINTTANPMTITTSNMKIEITKNPVRMTVKKADGTTLFWEPSGGGVFSDGVRFLHATGDNMYGIRSFNAFDSGGDLLRNSSNHAAHAGEQGDSGGPLIWSTAGYGLLVDSDGGYPYTDSTTGQMEFYYGGTPPEGRRYAKQNVEYYIMLGTPKEIMTDVGEITGKPPMLPKWSLGFMNFEWDTNQTEFTNNVDTYRAKNIPIDAYAFDYDWKKYGETNYGEFAWNTTNFPSASTTSLKSTMDAKGIKMIGITKPRIVTKDASANVTTQGTDATNGGYFYPGHNEYQDYFIPVTVRSIDPYNANERAWFWNHSTDALNKGIVGWWNDETDKVSSGGALYWFGNFTTGHMSQTMYEGGRAYTSGAQRVWQTARTFYPGAQRYATTLWSGDIGIQYNKGERINWAAGMQEQRAVMLSSVNNGQVKWGMDTGGFNQQDGTTNNPNPDLYARWMQFSALTPVFRVHGNNHQQRQPWYFGSTAEEASKEAIQLRYSLIPYMYAYERSAYENGNGLVRPLMQAYPTDAAVKNYTDAWMFGDWLLAAPVVDKQQTSKDIYLPSGSWIDYARGNAITGGQTIRYSVNPDTLTDMPLFIKKGAIIPTQKVQDYVGQASVTSVDVDVFPDTTQSSFTYYDDDGASYNYESGTYFKQNMTAQDNGSGSLSFTLGAKSGSYTPALQSYIVKLHGSAGTSVTNNSAAMTSYASLEALKAAAGEGWATGKDIYGDVTYVKVTAGTASSKSIAVTGVAAVSATTSQYEAEDASLSGNSVAAKASINTNHTGYTGTGFVDGLGNDGAGVTFYPKVKTGGDYNVSLRYANASGTAKSVSIFVNGKRVKSTSLANLANWDTWSTQSETLPLTAGVNVVTYKYYSDAGDTGNVNIDNITVPFAPIIGKYEAESAELSGGSSLNTNHWYYSGTAFVDGLSAVGAQVKYNVNVPSAGSYQVALRYANGSAATKTLSTYINGAKLGQTSFTSPGTNWNVWQDNVQTVTLNAGANTIAFKYDAADSGNINVDRLLLSTSAAGTPVSEQNLLDNPGFERDTSQTNNWIEWHPGTQAVAFGVDSGSTTNPPESPWSGDKRAYFFAAGAYQQSIHQTISVPVNNVKYKFEAWVRMKNTTPTTARAEIQNYGGSAIYANISNSGVWKYISVSDIMVTNGQIDVGFYVDSPGGTTLHIDDVRVTKQ
modifications: Bacillus globisporus C11
Take B2: the Isoelectric point entry in data set [1] is on record as “about 5.2±0.5”. In addition, the “Percentage of forming reducing power” value in data set [2] (reaction time 0 hour) came to 0.0%; in data set [2] (reaction time 1 hour), 0.1%; in data set [2] (reaction time 2 hours), 0.0%; in data set [2] (reaction time 4 hours), 0.1%; in data set [2] (reaction time 8 hours), 0.0%. For the same molecule, the Thermal stability result in data set [3] (in the absence of Ca2+) was “up to 40 °C”. For the same molecule, the Optimum temperature result in data set [4] (in the absence of Ca2+) was “about 45 °C”; in data set [4] (in the presence of 1 mM Ca2+) it was “about 50 °C”. For the same molecule, the “Optimum pH” value in data set [4] was “about 6.0”.
